# Where two headings read alike, the source gives them in different places.
# B1: Actimmune (protein, UniProt P01579 24-161, looked up)
# Interferon gamma: QDPYVKEAENLKKYFNAGHSDVADNGTLFLGILKNWKEESDRKIMQSQIVSFYFKLFKNFKDDQSIQKSVETIKEDMNVKFFNSNKKKRDDFEKLTNYSVTDLNVQRKAIHELIQVMAELSPAAKTGKRKRSQMLFRG
# modifications: interferon gamma-1b
# How the values were obtained:
# [1] = cited from earlier work
# [2] = cited from earlier work; for storage time after reconstitution: reconstituted with 0.9% benzyl alcohol
# [3] = Level of inclusion of guest protein/peptide in host crystals (labeled-insulin/lactose crystals dissolved in PBS and analyzed by HPLC); assay type: physicochemical; details: rhodamine-labeled glucagon in α-lactose monohydrate crystals
# Protocol: To investigate the potential for incorporation of a biopharmaceutical into crystals of biocompatible excipients, studies were conducted using rhodamine-labeled glandular glucagon and lactose. As in the previous studies, the rhodamine label was used to facilitate the visualization of glucagon in the host crystals. Typical crystal growth conditions involved the addition of 5 volumes of a supersaturated solution of deionized α-lactose monohydrate to 1 volume of an approximately 1.5 mg/mL (approximately 300 to 400 μmole) of rhodamine-labeled glucagon in purified water. The mixed solution was allowed to stand at room temperature in a 24-well plate.
# [4] = vs. 2% in placebo; cited from earlier work
molecule,measurement,setting,value
Actimmune,activity,[1]; interferon gamma-1b,"dimeric form in solution, activity or 30 million units/mg."
Activase,activity,[1]; T-PA glycoprotein,"580,000 IU/mg."
same,time diluted solution can be held,"[2]; 1 mg/mL solution diluted 1:1 with 0.9% NaCl or D5W, room temperature",8 h
same,effect of preservatives on the product,[2]; preserved water or addition of preservatives,precipitation
Leukine,specific activity,[1]; GM-CSF,Additional Information: Specific activity is 5 × 10^7 colony forming units per mg protein. Sargramostim
same,storage time after reconstitution,[2]; refrigerated temperatures,< 20 days
same,reconstituted solution stable for,"[2]; reconstituted with sterile water, refrigerated temperatures",< 6 h
Protropin,storage time after reconstitution,[2]; refrigerated temperatures,"stored at refrigerated temperature, the reconstituted product is good for 14 days at refrigerated"
rhodamine-labeled glucagon: glandular glucagon carrying a rhodamine label to visualize it in the host crystals,level of inclusion,[3],approximately 0.1 % (w/w)
B1,injection site irritation,[4],Additional Information: 14% injection site irritation vs. 2% in placebo. Cost $140 for 50 μg.
